In article PMC12424427:

Target: AGO2 (UniProt Q9UKV8)
Test: MST
Conditions: MST: labeled protein 5-150 nM, ligand 1E-10 to 1E-5 M, 5-15 min, buffer and temperature not stated, pull-down: 150 mM NaCl, 50 mM Tris pH 7.4, 1% Triton X-100 …

Sequence of AGO2 (Q9UKV8 whole entry): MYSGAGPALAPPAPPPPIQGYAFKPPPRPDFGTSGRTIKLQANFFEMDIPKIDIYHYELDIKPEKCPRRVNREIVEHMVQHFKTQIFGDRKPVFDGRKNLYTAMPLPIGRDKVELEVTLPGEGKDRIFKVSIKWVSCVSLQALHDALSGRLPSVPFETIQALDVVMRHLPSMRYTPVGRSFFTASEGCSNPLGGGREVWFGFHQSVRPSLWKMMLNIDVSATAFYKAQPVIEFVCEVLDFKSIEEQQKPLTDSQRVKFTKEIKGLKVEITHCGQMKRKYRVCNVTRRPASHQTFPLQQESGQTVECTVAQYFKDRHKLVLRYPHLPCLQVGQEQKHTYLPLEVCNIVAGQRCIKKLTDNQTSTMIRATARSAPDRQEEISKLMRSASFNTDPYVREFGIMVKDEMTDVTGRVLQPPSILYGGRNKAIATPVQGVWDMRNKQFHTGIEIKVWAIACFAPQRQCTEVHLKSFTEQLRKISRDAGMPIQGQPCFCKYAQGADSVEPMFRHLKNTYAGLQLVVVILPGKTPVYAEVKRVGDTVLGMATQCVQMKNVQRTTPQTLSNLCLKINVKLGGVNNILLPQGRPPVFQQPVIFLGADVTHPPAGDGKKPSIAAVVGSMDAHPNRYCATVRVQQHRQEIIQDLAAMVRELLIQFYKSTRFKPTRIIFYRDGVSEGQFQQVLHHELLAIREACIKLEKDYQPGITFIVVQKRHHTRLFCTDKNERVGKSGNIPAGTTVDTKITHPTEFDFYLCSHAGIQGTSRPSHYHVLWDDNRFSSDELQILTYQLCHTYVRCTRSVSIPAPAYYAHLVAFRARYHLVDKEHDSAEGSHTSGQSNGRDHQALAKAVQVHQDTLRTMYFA

3p-hpRNA (5'ppp hairpin RNA)
Kd (no competitor, 5'-triphosphate): 205 nM

5'ppp-dsRNA
Kd (5'-triphosphate): 2200 nM

5'ppp-dsRNA Control (dsRNA control)
Kd (no 5'-triphosphate): 2200 nM
